Results: patent US20170002079A1

Molecular target: human ST2 on primary human cells (human) (UniProt Q01638)
Assay: cell-based or functional assay

Chain of human ST2 on primary human cells (human) (Q01638 19-556 A78X, form in doubt): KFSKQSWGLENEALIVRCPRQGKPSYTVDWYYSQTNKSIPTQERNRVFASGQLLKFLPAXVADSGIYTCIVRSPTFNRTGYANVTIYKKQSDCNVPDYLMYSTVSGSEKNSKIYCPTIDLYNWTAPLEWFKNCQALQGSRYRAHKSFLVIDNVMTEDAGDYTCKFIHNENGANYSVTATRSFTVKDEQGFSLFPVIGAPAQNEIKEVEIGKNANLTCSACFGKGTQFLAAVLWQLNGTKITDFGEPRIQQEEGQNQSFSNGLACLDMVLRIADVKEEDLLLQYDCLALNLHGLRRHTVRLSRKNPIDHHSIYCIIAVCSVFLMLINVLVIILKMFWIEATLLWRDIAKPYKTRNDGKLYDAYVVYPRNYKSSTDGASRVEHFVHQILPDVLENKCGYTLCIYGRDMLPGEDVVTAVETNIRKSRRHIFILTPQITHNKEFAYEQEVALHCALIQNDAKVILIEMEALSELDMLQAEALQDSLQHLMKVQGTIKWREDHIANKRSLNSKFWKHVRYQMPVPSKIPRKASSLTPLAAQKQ

97203 (antibody) was tested. Which IC50 (ug/ml), inhibition of IL-33-dependent IFN-γ release from human NK cells (IL-33 10 ng/mL and IL-12) did it give?
Its IC50 (ug/ml), inhibition of IL-33-dependent IFN-γ release from human NK cells (IL-33 10 ng/mL and IL-12) is 0.385 µg/mL.
